± gives the uncertainty stated by the source.
Assay: protein stability index of a GFP-peptide fusion (yeast GPS) (PSI 1-4); higher = more stable; sorted into four equal gates, so the index is relative within each strain
Details: pdr5∆
Summary of the method: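 Peptides tiling yeast proteins in 17-residue segments were fused downstream of GFP, with Cherry expressed from the same plasmid. As a pooled library in yeast, mid-log cultures grown in leucine-free medium were sorted into four equal gates by GFP/Cherry fluorescence ratio. Gate plasmids were PCR-amplified and Illumina-sequenced, and barcodes linked reads to strains. Each peptide received a protein stability index equal to the sum of each gate's read frequency times its gate number.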

Sequence | protein stability index
LLQLIQSQPQEKFSEKM [ECM29] | 2.02 ± 0.098
LLRYGGAFTIALAYAGT [RPN2] | 2.27 ± 0.11
LLSENRSEKSTTNAQTK [SRP54] | 2.84 ± 0.099
LLSLNSVRSLQKRIENG [SRP68] | 1.65 ± 0.063
LLTPKSGEPIIAATQDF [RPO31] | 2.57 ± 0.27

Same assay, conditions: san1∆

Sequence | protein stability index
LADYIVEVLLVNYNSDM [NUT1] | 1.39 ± 0.14
LAELINMTTIADRNDDD [SRB6] | 2.75 ± 0.062
LAPSKHQPITSEQKMKE [SIR4] | 2.61 ± 0.1
LARDTPSANNSSSIKST [RRP4] | 2.97 ± 0.047
LARHLPAELDLRGSLLS [RPC82] | 3.01 ± 0.085
LASNFDNFDYFNQRDGE [MED1] | 3.2 ± 0.084
LATNSLVEEFMLLANIS [DIS3] | 1.74 ± 0.16
LCLTEFENCYLEGNDIH [FAS1] | 3.2 ± 0.13
LDPALLRPGRIDRKVEF [RPT1] | 3.34 ± 0.068
LDPLEMEGNAQPVNFNR [RPO31] | 2.93 ± 0.1
LDRISSYTAFSRLTLLL [PRP8] | 1.93 ± 0.068
LDRRFEIFFKKDSLWQS [FAS1] | 2.52 ± 0.26
LDTLPSEFDSRVKAMEV [RPT5] | 3.2 ± 0.068
LEDELYHTNPGHSQFTS [RPN4] | 3.05 ± 0.082
LEDMVFPTEIVGKRVRY [RPS7B] | 2.5 ± 0.21
LEDQQRQQKLLLETKLR [SWI1] | 3.12 ± 0.083
LEFRWLTSSKSVIVSQF [SIN4] | 1.6 ± 0.087
LEKDAADCQAELTKTKS [YIL149C/MLP2] | 2.75 ± 0.18
LELPLCPYCYKKRREYF [SIR2] | 1.95 ± 0.07
LELTTGATYRGKLVESE [SMD3] | 2.94 ± 0.11
LEPFLLMLEDTDGDSIL [BRR2] | 3.05 ± 0.073
LEQVEFEKNTILQQRSK [MED4] | 2.77 ± 0.11
LERTDLKSKVIDSPELL [RPN7] | 3.26 ± 0.085
LESEIASSSAKLIEKKS [SMC2] | 3.08 ± 0.04

Sequence | protein stability index
LESYKTQAKKLYHHTTK [SRP72] | 2.02 ± 0.13
LETEQLSSELDSNKTLL [SMC2] | 3.26 ± 0.05
LEVGRRFSPDEDFEHNN [MCD1] | 3.22 ± 0.16
LFEIVSNADTNQNSDMK [SRB8] | 2.85 ± 0.16
LFEQIGIRIKGKIVGFD [SME1] | 1.48 ± 0.2
LFEQLQTVSNKEDAKAT [SRP54] | 3.18 ± 0.054
LFGSSNNNNNNNNSNNI [YGL172W/NUP49] | 2.53 ± 0.086
LFKYQGHIGAYLIVAGV [PUP1] | 1.39 ± 0.12
LFQTIEKLINNSDDCMM [ECM29] | 3.09 ± 0.063
LFSLLELGEQKCQELVT [RRP46] | 1.87 ± 0.093
LFSPEEVRAISVAKIRF [RPO21] | 2.41 ± 0.096
LFVFTEGWPKFQDTLYK [QCR10] | 3.08 ± 0.12
LFVISTEISPMAGSQFE [RRP45] | 2.8 ± 0.077
LGFEVKDQALIGTINSI [SIR2] | 2.27 ± 0.054
LGLEYIIRLLPINLENN [SRB8] | 1.24 ± 0.096
LGPRGVSITPGKIEKIA [SRP21] | 1.98 ± 0.088
LGQLYVTMGAKDKLREF [RPN6] | 3.08 ± 0.078
LGSHSSSQKDGNDFKFN [REC8] | 2.91 ± 0.081
LGVPRIKEIINASKVIS [RPO31] | 1.49 ± 0.12
LHKRLHGVSFKKRAPRA [RPL31A] | 3 ± 0.16
LHLANEHGLQITHTENY [BRN1] | 2.68 ± 0.15
LIALSLIMALLQFRPAP [SMC2] | 1.36 ± 0.048
LIARRDDESPRFVMPNQ [RRP6] | 3.21 ± 0.081
LICSIGLHSSEYKLRSL [ECM29] | 2.26 ± 0.07

Sequence | protein stability index
LIEILRLRALQLYFQKN [RRI2] | 1.26 ± 0.12
LIEKEIQPKITELKKKL [SMC1] | 2.9 ± 0.11
LIENCKKRNMPLQSIPE [SWI1] | 3.01 ± 0.051
LIEPLPTESYLQYIIHD [BRR2] | 2.58 ± 0.096
LIESGIGTHHAGLTRSD [BRR2] | 2.82 ± 0.1
LIIIAANTPVLRKSELE [RPL30] | 2.31 ± 0.094
LIIKYQKYWESMRIQIL [GAL11] | 1.71 ± 0.087
LINDSYINDVHLLYPPH [SSN8] | 2.96 ± 0.045
LINIDTSIANAFRRIMI [RPC40] | 3.14 ± 0.046
LINLAKTRVGSVTAQVY [RPC82] | 1.16 ± 0.18
LIQDLLHRLTPKNVKGE [RPN1] | 3.51 ± 0.21
LIQKLQNSANNNSDDED [IRR1] | 3.26 ± 0.05
LIQLGVKPLESSAKRSK [SRP72] | 2.56 ± 0.12
LIQSYSLLDKPDEAIEK [FAS1] | 2.14 ± 0.087
LIVRAKNHTHNLPGNIT [RRP4] | 2.89 ± 0.066
LKCAERQLTSMEFSNLY [NUT1] | 1.65 ± 0.072
LKEPVEDIIKRTSPIDN [NUT2] | 2.64 ± 0.1
LKHVLQLIFRQQTGLVD [SNU114] | 1.68 ± 0.12
LKIQFILSTTLDPTDDE [SIN4] | 2.12 ± 0.067
LKIYKVGDIVDIKANGS [RPL21B] | 1.83 ± 0.062
LKKDIESLRGILHVRAQ [SRP72] | 2.11 ± 0.22
LKKFRESLVHSALCILK [BRR2] | 2.86 ± 0.078
LKKGEQKTQELNAKYQS [ISW2] | 3.29 ± 0.039
LKKIRAHRGIRHFWGLR [RPS18A] | 2.44 ± 0.079

Sequence | protein stability index
LKKQLHVSHEAMREVND [YIL149C/MLP2] | 2.91 ± 0.07
LKLCVQELEKRMPMDFK [PRE1] | 3.18 ± 0.054
LKMMKLIVDTHVQFRLG [PRP8] | 2.56 ± 0.059
LKRADYTAVDTAKLQMR [RPN14] | 2.76 ± 0.1
LKSESATSQYLKQDLKK [YGL172W/NUP49] | 2.9 ± 0.061
LKSKVIDSPELLSLIST [RPN7] | 2.4 ± 0.049
LKSPVLSKLCVPVANQF [QCR7] | 1.92 ± 0.053
LKTEAANVLDPSLRKLI [BRR2] | 2.9 ± 0.064
LKWSACTSLMDIIVAIK [IRR1] | 2.44 ± 0.16
LLAEYDNIYRNLQKIDK [MED4] | 2.61 ± 0.05
LLAKRLSERKAEKAEIR [RPS6A] | 3.18 ± 0.086
LLCALDRKDQDDRDHFG [RPB2] | 2.71 ± 0.1
LLERGRLRKRVTIIPLD [SMC2] | 2.26 ± 0.059
LLETKLRQQYEIELKKL [SWI1] | 3.17 ± 0.069
LLFINSSKLVDVYTLPS [YML103C/NUP188] | 1.98 ± 0.055
LLFWTDPRNLVNQTGST [YCG1] | 2.83 ± 0.055
LLGKDNEDDALIYGISD [AAR2] | 3.11 ± 0.1
LLGPTLEDHTPPEDKPN [QCR10] | 2.94 ± 0.082
LLIHRKGLTYLHLDYNF [PRP8] | 1.32 ± 0.079
LLLRCDDRVDKKFVSQI [POP3] | 3.03 ± 0.054
LLLSPDQWYCIDKLEDL [ITC1] | 3.22 ± 0.097
LLPTIKRTICKKCHRLL [RPR2] | 2.26 ± 0.11
LLQLIQSQPQEKFSEKM [ECM29] | 2.46 ± 0.093
LLRYGGAFTIALAYAGT [RPN2] | 1.91 ± 0.12
